Here are results for 14 molecules from patent publication US20220193237A1 (Bristol-Myers Squibb, published 2022).

Assay [1] concerns the target T1, monomeric human CTLA-4 (human, UniProt P16410 36-161, limits assumed).
T1 construct: Soluble monomeric analyte in SPR; also called huCTLA-4
T1 sequence: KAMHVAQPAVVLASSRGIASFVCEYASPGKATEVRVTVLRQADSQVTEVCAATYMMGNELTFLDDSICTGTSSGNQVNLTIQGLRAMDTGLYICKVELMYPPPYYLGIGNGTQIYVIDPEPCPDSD
The assay is described as follows: SPR, captured Fab, pH 6.0. As to the method: (§1) Binding of selected variants to human CTLA-4 was determined essentially as described in Example 3. […] Nomenclature and sequences for these antibodies is provided at Tables 6 and 7, and in the sequence listing as summarized at Table 8.
(§2) Monomeric human CTLA-4 was flowed as analyte with up to 2 μM top concentration. Between cycles, the capture surface was regenerated with 75 mM phosphoric acid. Experiments were run on a BIACORE® T200 instrument at 37° C. Running buffers were HEPES buffered saline for pH 7.4 experiments and Bis-Tris buffered saline for lower pH experiments. […] Double referenced sensorgrams were fitted to a 1:1 Langmuir binding model with mass transport to determine equilibrium dissociation constants (KD), as well as association (kₐ) and dissociation (kd) rate constants where appropriate.

The target in assay [2] is T1, monomeric human CTLA-4. The assay is described as follows: SPR, captured Fab, pH 7.4. As to the method: as §1, §2
In assay [3] the target is T1, monomeric human CTLA-4. The assay is described as follows: SPR, captured Fab, pH 6.0 vs 7.4. As to the method:
as §1, §2

B1: ipi.7 Fab (Fab, V domains shown)
VH: QVQLVESGGGVVQPGRSLRLSCAASGFTFSSYHMHWVRQAPGKGLEWVTFISYDGNHKYYADSVKGRFTISRDNSKNTLYLQMNSLRAEDTAIYYCARTGWLGPFDYWGQGTLVTVSS
VL: not shown
notes: Tested as monovalent Fab
Regarding B1, in assay [1], binding was put at a Kd of 1.7 nM, the kon is 1.2e+06 M⁻¹ s⁻¹ and the “t1/2” value was determined as 347 s. In assay [2], the Kd was 1.5 nM, the kon worked out at 1e+06 M⁻¹ s⁻¹ and the “t1/2” value was 462 s. In assay [3], the “KD 7.4/6 (APBP)” value came to 0.8, the “ka 6/7.4” value turned out to be 1.1 and the “t1/2 6/7.4” value was 0.7.

B2: ipi.95 Fab (Fab, V domains shown)
VH: QVQLVESGGGVVQPGRSLRLSCAASGFTFSHYTMHWVRQAPGKGLEWVTFISYDGHNKYYADSVKGRFTISRDNSKNTLYLQMNSLRAEDTAIYYCARTGWLGPFDYWGQGTLVTVSS
VL: EIVLTQSPGTLSLSPGERATLSCRASQEVGDSELAWYQQKPGQAPRLLIYGAFSRATGIPDRFSGSGSGTDFTLTISRLEPEDFAVYYCQQYGSSPWTFGQGTKVEIKR
notes: Tested as monovalent Fab
Regarding B2, in assay [1], the Kd came out at 2.8 nM, the kon was determined as 1.9e+06 M⁻¹ s⁻¹ and the “t1/2” value was found to be 126 s. In assay [2], binding was put at a Kd of 280 nM. In assay [3], the “KD 7.4/6 (APBP)” value stood at 99.

B3: ipi.20 Fab (Fab, V domains shown)
VH: QVQLVESGGGVVQPGRSLRLSCAASGFTFSSYTMHWVRQAPGKGLEWVTFISYDGNNKYYADSVKGRFTISRDNSKNTLYLQMNSLRAEDTAIYYCARTGWLGPFDYWGQGTLVTVSS
VL: not shown
notes: Tested as monovalent Fab
Turning to B3, in assay [1], the Kd came to 32 nM, the kon is 1.6e+06 M⁻¹ s⁻¹ and the “t1/2” value turned out to be 14 s. Further, in assay [2], the Kd worked out at 84 nM, the kon was 790000 M⁻¹ s⁻¹ and the “t1/2” value worked out at 11 s. Also, in assay [3], the “KD 7.4/6 (APBP)” value came out at 2.6, the “ka 6/7.4” value came to 2 and the “t1/2 6/7.4” value amounted to 1.3.

B4: ipi.88 Fab (Fab, V domains shown)
VH: QVQLVESGGGVVQPGRSLRLSCAASGFTFSHYTMHWVRQAPGKGLEWVTFISYDGHNKYYADSVKGRFTISRDNSKNTLYLQMNSLRAEDTAIYYCARHGWLGPFDYWGQGTLVTVSS
VL: not shown
notes: Tested as monovalent Fab
With B4, in assay [1], the affinity, expressed as Kd, was 6.5 nM; the kon came to 2e+06 M⁻¹ s⁻¹; the “t1/2” value worked out at 53 s. In assay [2], the affinity, expressed as Kd, was 170 nM. Moreover, the “KD 7.4/6 (APBP)” value in assay [3] was 27.

B5: ipi.69 Fab (Fab, V domains shown)
VH: QVQLVESGGGVVQPGRSLRLSCAASGFTFSHYTMHWVRQAPGKGLEWVTFISYDGHNKYYADSVKGRFTISRDNSKNTLYLQMNSLRAEDTAIYYCARTGWLGPFDYWGQGTLVTVSS
VL: not shown
notes: Tested as monovalent Fab
In the case of B5, in assay [1], the Kd was 4.4 nM, the kon came out at 1.1e+06 M⁻¹ s⁻¹ and the “t1/2” value was 144 s. In addition, in assay [2], binding was characterised by a dissociation constant (Kd) of 28 nM, the kon is 820000 M⁻¹ s⁻¹ and the “t1/2” value is 30 s. In addition, in assay [3], the “KD 7.4/6 (APBP)” value worked out at 6.3, the “ka 6/7.4” value is 1.3 and the “t1/2 6/7.4” value is 4.7.

B6: ipi.94 Fab (Fab, V domains shown)
VH: QVQLVESGGGVVQPGRSLRLSCAASGFTFSHYTMHWVRQAPGKGLEWVTFISYDGNNKYYADSVKGRFTISRDNSKNTLYLQMNSLRAEDTAIYYCARTGWLGPFDYWGQGTLVTVSS
VL: EIVLTQSPGTLSLSPGERATLSCRASQEVGDSELAWYQQKPGQAPRLLIYGAFSRATGIPDRFSGSGSGTDFTLTISRLEPEDFAVYYCQQYGSSPWTFGQGTKVEIKR
notes: Tested as monovalent Fab
B6: in assay [1], the Kd stood at 5.2 nM, the kon was determined as 1.9e+06 M⁻¹ s⁻¹ and the “t1/2” value was 70 s. In assay [2], this molecule had a Kd of 270 nM. In addition, the “KD 7.4/6 (APBP)” value in assay [3] stood at 52.

B7: ipi.92 Fab (Fab, V domains shown)
VH: QVQLVESGGGVVQPGRSLRLSCAASGFTFSHYTMHWVRQAPGKGLEWVTFISYDGHNKYYADSVKGRFTISRDNSKNTLYLQMNSLRAEDTAIYYCARHGWLGPFDYWGQGTLVTVSS
VL: EIVLTQSPGTLSLSPGERATLSCRASQEVGDSELAWYQQKPGQAPRLLIYGAFSRATGIPDRFSGSGSGTDFTLTISRLEPEDFAVYYCQQYGSSPWTFGQGTKVEIKR
notes: Tested as monovalent Fab
As for B7, in assay [1], the Kd is 17 nM, the kon is 1.8e+06 M⁻¹ s⁻¹ and the “t1/2” value stood at 22 s. The same molecule yielded a Kd in assay [2] greater than 1000 nM. Besides, the “KD 7.4/6 (APBP)” value in assay [3] is greater than 59.

B8: ipi.71 Fab (Fab, V domains shown)
VH: QVQLVESGGGVVQPGRSLRLSCAASGFTFSHYTMHWVRQAPGKGLEWVTFISYDGHNKYYADSVKGRFTISRDNSKNTLYLQMNSLRAEDTAIYYCARTGWLGPFDYWGQGTLVTVSS
VL: not shown
notes: Tested as monovalent Fab
For the molecule B8, in assay [1], the Kd is 1.6 nM, the kon was determined as 1.5e+06 M⁻¹ s⁻¹ and the “t1/2” value is 289 s. Moreover, in assay [2], the Kd was found to be 39 nM, the kon is 740000 M⁻¹ s⁻¹ and the “t1/2” value was found to be 24 s. Besides, in assay [3], the “KD 7.4/6 (APBP)” value came to 25, the “ka 6/7.4” value stood at 2 and the “t1/2 6/7.4” value is 12.2.

B9: ipi.93 Fab (Fab, V domains shown)
VH: QVQLVESGGGVVQPGRSLRLSCAASGFTFSSYTMHWVRQAPGKGLEWVTFISYDGNNKYYADSVKGRFTISRDNSKNTLYLQMNSLRAEDTAIYYCARTGWLGPFDYWGQGTLVTVSS
VL: EIVLTQSPGTLSLSPGERATLSCRASQEVGDSELAWYQQKPGQAPRLLIYGAFSRATGIPDRFSGSGSGTDFTLTISRLEPEDFAVYYCQQYGSSPWTFGQGTKVEIKR
notes: Tested as monovalent Fab
Turning to B9, in assay [1], the Kd is 13 nM, the kon came to 1.7e+06 M⁻¹ s⁻¹ and the “t1/2” value was found to be 32 s. The molecule also showed a Kd in assay [2] of 210 nM. In assay [3], the “KD 7.4/6 (APBP)” value amounted to 16.

B10: ipi.82 Fab (Fab, V domains shown)
VH: QVQLVESGGGVVQPGRSLRLSCAASGFTFSHYTMHWVRQAPGKGLEWVTFISYDGNNKYYADSVKGRFTISRDNSKNTLYLQMNSLRAEDTAIYYCARHGWLGPFDYWGQGTLVTVSS
VL: not shown
notes: Tested as monovalent Fab
Turning to B10, in assay [1], the Kd stood at 31 nM, the kon was found to be 1.4e+06 M⁻¹ s⁻¹ and the “t1/2” value came to 16 s. In addition, binding in assay [2] was put at a Kd of 130 nM. Further, the “KD 7.4/6 (APBP)” value in assay [3] was determined as 4.4.

B11: ipi.66 Fab (Fab, V domains shown)
VH: QVQLVESGGGVVQPGRSLRLSCAASGFTFSSYTMHWVRQAPGKGLEWVTFISYDGHNKYYADSVKGRFTISRDNSKNTLYLQMNSLRAEDTAIYYCARTGWLGPFDYWGQGTLVTVSS
VL: not shown
notes: Tested as monovalent Fab
For the molecule B11, in assay [1], the Kd was found to be 3.5 nM, the kon was 1.2e+06 M⁻¹ s⁻¹ and the “t1/2” value amounted to 161 s. Also, in assay [2], the Kd was found to be 26 nM, the kon was 700000 M⁻¹ s⁻¹ and the “t1/2” value was found to be 36 s. Moreover, in assay [3], the “KD 7.4/6 (APBP)” value came to 7.6, the “ka 6/7.4” value came out at 1.8 and the “t1/2 6/7.4” value came out at 4.3.

B12: ipi.86 Fab (Fab, V domains shown)
VH: QVQLVESGGGVVQPGRSLRLSCAASGFTFSHYTMHWVRQAPGKGLEWVTFISYDGNNKYYADSVKGRFTISRDNSKNTLYLQMNSLRAEDTAIYYCARHGWLGPFDYWGQGTLVTVSS
VL: not shown
notes: Tested as monovalent Fab
Turning to B12, in assay [1], the Kd came out at 12 nM, the kon worked out at 1.6e+06 M⁻¹ s⁻¹ and the “t1/2” value worked out at 36 s. This molecule returned a Kd in assay [2] of 180 nM. Also, in assay [3], the “KD 7.4/6 (APBP)” value was 15.

B13: ipi.59 Fab (Fab, V domains shown)
VH: QVQLVESGGGVVQPGRSLRLSCAASGFTFSSYTMHWVRQAPGKGLEWVTFISYDGHNKYYADSVKGRFTISRDNSKNTLYLQMNSLRAEDTAIYYCARTGWLGPFDYWGQGTLVTVSS
VL: not shown
notes: Tested as monovalent Fab
B13: in assay [1], the Kd was found to be 11 nM, the kon was 1e+06 M⁻¹ s⁻¹ and the “t1/2” value worked out at 63 s. Further, in assay [2], binding was characterised by a dissociation constant (Kd) of 21 nM, the kon came to 810000 M⁻¹ s⁻¹ and the “t1/2” value is 41 s. Moreover, in assay [3], the “KD 7.4/6 (APBP)” value is 1.9, the “ka 6/7.4” value came to 1.3 and the “t1/2 6/7.4” value was found to be 1.5.

B14: ipi.84 Fab (Fab, V domains shown)
VH: QVQLVESGGGVVQPGRSLRLSCAASGFTFSHYTMHWVRQAPGKGLEWVTFISYDGHNKYYADSVKGRFTISRDNSKNTLYLQMNSLRAEDTAIYYCARHGWLGPFDYWGQGTLVTVSS
VL: not shown
notes: Tested as monovalent Fab
B14: in assay [1], the Kd stood at 16 nM, the kon came out at 1.3e+06 M⁻¹ s⁻¹ and the “t1/2” value came out at 35 s. The molecule also showed a Kd in assay [2] of 120 nM. In assay [3], the “KD 7.4/6 (APBP)” value was 7.7.
